Results published in IntAct's records for PubMed 35512704.

B1: Mothers against decapentaplegic homolog 4 (Homo sapiens), Q13485 (parent)
chain: MDNMSITNTPTSNDACLSIVHSLMCHRQGGESETFAKRAIESLVKKLKEKKDELDSLITAITTNGAHPSKCVTIQRTLDGRLQVAGRKGFPHVIYARLWRWPDLHKNELKHVKYCQYAFDLKCDSVCVNPYHYERVVSPGIDLSGLTLQSNAPSSMMVKDEYVHDFEGQPSLSTEGHSIQTIQHPPSNRASTETYSTPALLAPSESNATSTANFPNIPVASTSQPASILGGSHSEGLLQIASGPQPGQQQNGFTGQPATYHHNSTTTWTGSRTAPYTPNLPHHQNGHLQHHPPMPPHPGHYWPVHNELAFQPPISNHPAPEYWCSIAYFEMDVQVGETFKVPSSCPIVTVDGYVDPSGGDRFCLGQLSNVHRTEAIERARLHIGKGVQLECKGEGDVWVRCLSDHAVFVQSYYLDREAGRAPGDAVHKIYPSAYIKVFDLRQCHRQMQQQAATAQAAAAAQAAAVAGNIPGPGSVGGIAPAISLSAAAGIGVDDLRRLCILRMSFVKGWGPDYPRQSIKETPCWIEIHLHRALQLLDEVLHTMPIADPQPLD

Variants of: B1
Conditions: with etv1_human ETV1, P50549

| Variant | effect of a mutation on the interaction |
| --- | --- |
| G386D | with no effect |

Variants of: B1
Conditions: with ezh2_human EZH2, Q15910
Chain of ezh2_human EZH2, Q15910 (Q15910 whole entry, looked up): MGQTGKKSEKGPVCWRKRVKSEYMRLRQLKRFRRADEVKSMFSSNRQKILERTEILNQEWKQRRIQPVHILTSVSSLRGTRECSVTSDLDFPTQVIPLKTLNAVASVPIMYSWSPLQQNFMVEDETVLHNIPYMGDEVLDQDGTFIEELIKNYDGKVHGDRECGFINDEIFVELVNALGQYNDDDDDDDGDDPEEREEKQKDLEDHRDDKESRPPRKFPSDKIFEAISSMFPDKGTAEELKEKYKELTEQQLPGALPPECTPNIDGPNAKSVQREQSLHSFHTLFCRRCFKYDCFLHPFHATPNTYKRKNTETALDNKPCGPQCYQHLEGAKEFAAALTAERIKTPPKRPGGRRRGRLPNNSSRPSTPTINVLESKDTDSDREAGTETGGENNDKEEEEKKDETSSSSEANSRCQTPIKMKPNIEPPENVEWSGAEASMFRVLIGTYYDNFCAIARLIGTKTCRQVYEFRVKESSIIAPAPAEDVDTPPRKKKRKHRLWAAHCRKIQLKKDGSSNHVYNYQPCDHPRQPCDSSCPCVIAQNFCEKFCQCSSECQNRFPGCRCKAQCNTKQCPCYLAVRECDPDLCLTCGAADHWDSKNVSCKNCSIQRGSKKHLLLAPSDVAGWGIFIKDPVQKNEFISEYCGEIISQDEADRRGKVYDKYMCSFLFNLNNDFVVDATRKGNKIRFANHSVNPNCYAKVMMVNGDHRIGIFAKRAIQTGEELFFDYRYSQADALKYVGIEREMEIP

| Variant | effect of a mutation on the interaction |
| --- | --- |
| G386D | with no effect |

Variants of: B1
Conditions: with fadd_human FADD

| Variant | effect of a mutation on the interaction |
| --- | --- |
| G386D | with no effect |

Variants of: B1
Conditions: with facd2_human FANCD2, Q9BXW9

| Variant | effect of a mutation on the interaction |
| --- | --- |
| G386D | with no effect |

Variants of: B1
Conditions: with tnr6_human FAS

| Variant | effect of a mutation on the interaction |
| --- | --- |
| G386D | with no effect |

Variants of: B1
Conditions: with fgf19_human FGF19, O95750
Chain of fgf19_human FGF19, O95750 (O95750 whole entry): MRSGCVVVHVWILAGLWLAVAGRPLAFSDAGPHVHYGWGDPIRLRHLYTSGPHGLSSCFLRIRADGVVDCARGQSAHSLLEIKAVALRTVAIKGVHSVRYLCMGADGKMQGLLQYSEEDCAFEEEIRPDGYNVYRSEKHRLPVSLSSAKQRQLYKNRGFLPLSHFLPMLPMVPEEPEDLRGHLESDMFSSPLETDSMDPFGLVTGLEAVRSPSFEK

| Variant | effect of a mutation on the interaction |
| --- | --- |
| G386D | with no effect |

Variants of: B1
Conditions: with fgfr3_human FGFR3, P22607

| Variant | effect of a mutation on the interaction |
| --- | --- |
| G386D | with no effect |

Variants of: B1
Conditions: with fgfr4_human FGFR4, P22455

| Variant | effect of a mutation on the interaction |
| --- | --- |
| G386D | with no effect |

Variants of: B1
Conditions: with foxo1_human FOXO1, Q12778

| Variant | effect of a mutation on the interaction |
| --- | --- |
| G386D | with no effect |

Variants of: B1
Conditions: with foxo3_human FOXO3, O43524
Chain of foxo3_human FOXO3, O43524 (O43524 whole entry): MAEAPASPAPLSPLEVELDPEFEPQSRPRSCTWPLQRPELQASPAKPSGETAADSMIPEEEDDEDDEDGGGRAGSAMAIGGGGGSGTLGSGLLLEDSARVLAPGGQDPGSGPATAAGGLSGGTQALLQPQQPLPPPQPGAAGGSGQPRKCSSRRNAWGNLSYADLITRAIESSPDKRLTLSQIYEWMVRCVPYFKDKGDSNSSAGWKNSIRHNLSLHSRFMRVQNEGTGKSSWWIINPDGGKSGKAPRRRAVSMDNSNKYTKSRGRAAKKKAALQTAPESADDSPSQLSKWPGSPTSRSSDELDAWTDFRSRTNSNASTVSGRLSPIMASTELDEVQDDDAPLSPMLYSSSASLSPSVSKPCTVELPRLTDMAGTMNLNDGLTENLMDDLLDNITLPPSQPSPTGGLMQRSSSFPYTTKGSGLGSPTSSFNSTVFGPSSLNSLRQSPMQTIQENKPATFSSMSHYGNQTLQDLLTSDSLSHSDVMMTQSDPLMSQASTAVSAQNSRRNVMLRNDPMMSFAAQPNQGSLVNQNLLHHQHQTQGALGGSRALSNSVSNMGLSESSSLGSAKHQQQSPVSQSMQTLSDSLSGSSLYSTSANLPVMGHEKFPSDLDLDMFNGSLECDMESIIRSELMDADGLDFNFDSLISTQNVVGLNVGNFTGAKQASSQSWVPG

| Variant | effect of a mutation on the interaction |
| --- | --- |
| G386D | with no effect |

Variants of: B1
Conditions: with gbra6_human GABRA6, Q16445

| Variant | effect of a mutation on the interaction |
| --- | --- |
| G386D | with no effect |

Variants of: B1
Conditions: with gata2_human GATA2, P23769
Chain of gata2_human GATA2, P23769 (P23769 whole entry): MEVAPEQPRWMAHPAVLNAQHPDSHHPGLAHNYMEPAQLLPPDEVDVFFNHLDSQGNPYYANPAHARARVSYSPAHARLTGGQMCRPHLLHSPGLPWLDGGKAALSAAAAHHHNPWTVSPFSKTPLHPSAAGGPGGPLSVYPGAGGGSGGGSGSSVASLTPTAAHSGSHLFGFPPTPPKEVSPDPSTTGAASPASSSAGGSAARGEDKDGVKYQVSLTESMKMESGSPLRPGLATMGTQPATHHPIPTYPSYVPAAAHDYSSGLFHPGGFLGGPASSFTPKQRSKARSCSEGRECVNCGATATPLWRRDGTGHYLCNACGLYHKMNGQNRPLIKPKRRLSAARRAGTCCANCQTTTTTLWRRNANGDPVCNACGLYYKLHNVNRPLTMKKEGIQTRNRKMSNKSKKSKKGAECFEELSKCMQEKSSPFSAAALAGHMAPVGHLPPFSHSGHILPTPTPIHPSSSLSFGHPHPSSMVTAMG

| Variant | effect of a mutation on the interaction |
| --- | --- |
| G386D | with no effect |

Variants of: B1
Conditions: with gata3_human GATA3, P23771
Chain of gata3_human GATA3, P23771 (P23771 whole entry): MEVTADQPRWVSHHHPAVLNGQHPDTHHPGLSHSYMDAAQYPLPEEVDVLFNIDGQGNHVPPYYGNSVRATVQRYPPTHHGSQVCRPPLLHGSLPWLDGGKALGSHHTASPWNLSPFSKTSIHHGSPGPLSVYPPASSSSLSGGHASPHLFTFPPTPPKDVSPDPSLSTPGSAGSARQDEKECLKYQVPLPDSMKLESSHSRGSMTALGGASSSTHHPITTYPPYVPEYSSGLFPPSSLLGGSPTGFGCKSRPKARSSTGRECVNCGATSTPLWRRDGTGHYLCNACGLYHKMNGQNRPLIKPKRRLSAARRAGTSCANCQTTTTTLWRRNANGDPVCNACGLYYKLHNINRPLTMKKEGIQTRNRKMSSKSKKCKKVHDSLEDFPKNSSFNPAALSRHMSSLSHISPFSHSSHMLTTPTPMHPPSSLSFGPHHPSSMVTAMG

| Variant | effect of a mutation on the interaction |
| --- | --- |
| G386D | with no effect |

Variants of: B1
Conditions: with gna11_human GNA11, P29992

| Variant | effect of a mutation on the interaction |
| --- | --- |
| G386D | with no effect |

Variants of: B1
Conditions: with gna13_human GNA13, Q14344

| Variant | effect of a mutation on the interaction |
| --- | --- |
| G386D | with no effect |

Variants of: B1
Conditions: with gnaq_human GNAQ

| Variant | effect of a mutation on the interaction |
| --- | --- |
| G386D | with no effect |

Variants of: B1
Conditions: with grm1_human GRM1, Q13255

| Variant | effect of a mutation on the interaction |
| --- | --- |
| G386D | with no effect |

Variants of: B1
Conditions: with grm3_human GRM3, Q14832

| Variant | effect of a mutation on the interaction |
| --- | --- |
| G386D | with no effect |

Variants of: B1
Conditions: with gsk3a_human GSK3A

| Variant | effect of a mutation on the interaction |
| --- | --- |
| G386D | with no effect |

Variants of: B1
Conditions: with gsk3b_human GSK3B

| Variant | effect of a mutation on the interaction |
| --- | --- |
| G386D | with no effect |

Variants of: B1
Conditions: with hdac1_human HDAC1, Q13547

| Variant | effect of a mutation on the interaction |
| --- | --- |
| G386D | with no effect |

Variants of: B1
Conditions: with hdac3_human HDAC3, O15379
Chain of hdac3_human HDAC3, O15379 (O15379 whole entry): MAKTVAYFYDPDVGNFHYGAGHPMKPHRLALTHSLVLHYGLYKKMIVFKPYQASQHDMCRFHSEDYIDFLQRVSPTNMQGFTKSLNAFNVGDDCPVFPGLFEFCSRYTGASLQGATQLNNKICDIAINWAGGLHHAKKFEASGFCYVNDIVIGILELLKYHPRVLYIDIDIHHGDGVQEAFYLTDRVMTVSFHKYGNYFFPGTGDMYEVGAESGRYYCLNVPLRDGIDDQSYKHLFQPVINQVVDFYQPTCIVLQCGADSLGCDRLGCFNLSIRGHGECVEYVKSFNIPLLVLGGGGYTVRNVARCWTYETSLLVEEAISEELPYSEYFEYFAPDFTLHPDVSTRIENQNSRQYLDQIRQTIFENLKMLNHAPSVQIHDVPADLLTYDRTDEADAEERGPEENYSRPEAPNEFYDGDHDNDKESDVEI

| Variant | effect of a mutation on the interaction |
| --- | --- |
| G386D | with no effect |

Variants of: B1
Conditions: with hgf_human HGF

| Variant | effect of a mutation on the interaction |
| --- | --- |
| G386D | with no effect |

Variants of: B1
Conditions: with hif1a_human HIF1A

| Variant | effect of a mutation on the interaction |
| --- | --- |
| G386D | with no effect |

Variants of: B1
Conditions: with h31_human H3C1, P68431

| Variant | effect of a mutation on the interaction |
| --- | --- |
| G386D | with no effect |

Variants of: B1
Conditions: with hlab_human HLA-B

| Variant | effect of a mutation on the interaction |
| --- | --- |
| G386D | with no effect |

Variants of: B1
Conditions: with hnf1a_human HNF1A

| Variant | effect of a mutation on the interaction |
| --- | --- |
| G386D | with no effect |

Variants of: B1
Conditions: with rash_human HRAS

| Variant | effect of a mutation on the interaction |
| --- | --- |
| G386D | with no effect |

Variants of: B1
Conditions: with hs90a_human HSP90AA1, P07900

| Variant | effect of a mutation on the interaction |
| --- | --- |
| G386D | with no effect |

Variants of: B1
Conditions: with igf2_human IGF2, P01344

| Variant | effect of a mutation on the interaction |
| --- | --- |
| G386D | with no effect |

Variants of: B1
Conditions: with il7ra_human IL7R

| Variant | effect of a mutation on the interaction |
| --- | --- |
| G386D | with no effect |

Variants of: B1
Conditions: with int12_human INTS12, Q96CB8
Chain of int12_human INTS12, Q96CB8 (Q96CB8 whole entry): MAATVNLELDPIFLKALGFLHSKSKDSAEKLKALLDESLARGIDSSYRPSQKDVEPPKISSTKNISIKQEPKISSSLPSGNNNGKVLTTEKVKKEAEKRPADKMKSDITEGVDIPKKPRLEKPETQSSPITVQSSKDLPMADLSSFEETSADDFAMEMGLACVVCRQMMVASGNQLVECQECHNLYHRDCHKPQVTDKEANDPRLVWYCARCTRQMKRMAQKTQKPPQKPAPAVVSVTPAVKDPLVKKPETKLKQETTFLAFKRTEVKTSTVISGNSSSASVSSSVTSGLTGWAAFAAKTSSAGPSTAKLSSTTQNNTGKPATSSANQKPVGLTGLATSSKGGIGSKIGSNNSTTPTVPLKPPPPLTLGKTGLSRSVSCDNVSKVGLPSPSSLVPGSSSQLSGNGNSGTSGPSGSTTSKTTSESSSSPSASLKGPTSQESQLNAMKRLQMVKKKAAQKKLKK

| Variant | effect of a mutation on the interaction |
| --- | --- |
| G386D | with no effect |

Variants of: B1
Conditions: with irf6_human IRF6, O14896

| Variant | effect of a mutation on the interaction |
| --- | --- |
| G386D | with no effect |

Variants of: B1
Conditions: with irs1_human IRS1, P35568

| Variant | effect of a mutation on the interaction |
| --- | --- |
| G386D | with no effect |

Variants of: B1
Conditions: with ist1_human IST1, P53990
Chain of ist1_human IST1, P53990 (P53990 whole entry): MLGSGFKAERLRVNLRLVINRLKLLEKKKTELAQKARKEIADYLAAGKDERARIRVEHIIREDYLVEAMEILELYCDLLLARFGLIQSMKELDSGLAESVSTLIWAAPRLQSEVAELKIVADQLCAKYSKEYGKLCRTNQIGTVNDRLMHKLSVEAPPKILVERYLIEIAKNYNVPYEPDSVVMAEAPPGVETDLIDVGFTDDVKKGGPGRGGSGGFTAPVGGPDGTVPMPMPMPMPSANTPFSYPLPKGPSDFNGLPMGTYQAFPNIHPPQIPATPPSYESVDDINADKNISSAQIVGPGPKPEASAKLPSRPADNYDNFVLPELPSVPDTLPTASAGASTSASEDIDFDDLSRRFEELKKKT

| Variant | effect of a mutation on the interaction |
| --- | --- |
| G386D | with no effect |

Variants of: B1
Conditions: with jak1_human JAK1, P23458
Chain of jak1_human JAK1, P23458 (P23458 whole entry): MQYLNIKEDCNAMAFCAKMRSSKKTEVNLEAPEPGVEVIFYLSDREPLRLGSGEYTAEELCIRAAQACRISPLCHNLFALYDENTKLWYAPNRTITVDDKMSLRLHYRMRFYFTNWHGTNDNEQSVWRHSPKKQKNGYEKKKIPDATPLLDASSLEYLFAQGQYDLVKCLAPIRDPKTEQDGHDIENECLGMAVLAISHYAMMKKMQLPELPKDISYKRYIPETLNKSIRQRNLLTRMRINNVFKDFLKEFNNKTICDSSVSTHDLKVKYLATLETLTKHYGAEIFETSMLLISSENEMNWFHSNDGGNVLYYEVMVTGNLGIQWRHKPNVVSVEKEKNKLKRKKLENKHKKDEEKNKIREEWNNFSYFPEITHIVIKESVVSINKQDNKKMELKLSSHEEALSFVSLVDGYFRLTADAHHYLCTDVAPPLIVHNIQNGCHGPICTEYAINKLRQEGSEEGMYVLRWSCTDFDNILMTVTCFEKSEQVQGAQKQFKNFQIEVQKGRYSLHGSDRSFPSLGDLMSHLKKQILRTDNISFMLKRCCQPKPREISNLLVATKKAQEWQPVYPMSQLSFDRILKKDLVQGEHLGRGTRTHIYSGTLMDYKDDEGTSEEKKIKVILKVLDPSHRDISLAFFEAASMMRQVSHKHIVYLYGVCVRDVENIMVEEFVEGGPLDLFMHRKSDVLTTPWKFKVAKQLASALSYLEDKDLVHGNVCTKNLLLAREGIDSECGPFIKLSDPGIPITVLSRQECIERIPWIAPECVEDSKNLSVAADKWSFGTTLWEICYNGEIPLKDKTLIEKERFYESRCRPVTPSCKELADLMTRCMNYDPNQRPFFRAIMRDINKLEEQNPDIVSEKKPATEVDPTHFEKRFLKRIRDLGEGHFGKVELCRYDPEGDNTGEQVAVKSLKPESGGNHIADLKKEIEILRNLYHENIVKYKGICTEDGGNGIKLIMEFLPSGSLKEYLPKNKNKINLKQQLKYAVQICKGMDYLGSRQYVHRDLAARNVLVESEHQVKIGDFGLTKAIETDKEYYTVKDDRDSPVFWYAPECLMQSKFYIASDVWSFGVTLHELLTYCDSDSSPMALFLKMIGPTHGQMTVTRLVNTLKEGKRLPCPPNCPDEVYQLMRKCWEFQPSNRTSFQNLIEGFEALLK

| Variant | effect of a mutation on the interaction |
| --- | --- |
| G386D | with no effect |

Variants of: B1
Conditions: with jak3_human JAK3, P52333

| Variant | effect of a mutation on the interaction |
| --- | --- |
| G386D | with no effect |
